Experimental data published in publication PMC5640855, “ZIC2 Is Essential for Maintenance of Latency and Is a Target of an Immediate Early Protein during Kaposi's Sarcoma-Associated Herpesvirus Lytic Reactivation” (Journal of Virology, 2017).

Molecular target: T1, GST-K-Rta (Kaposi's sarcoma-associated herpesvirus …, UniProt F5HCV3 1-691)
T1 construct: also called GST-tagged K-Rta; source: recombinant baculovirus-infected Sf9 cells, purified
T1 sequence: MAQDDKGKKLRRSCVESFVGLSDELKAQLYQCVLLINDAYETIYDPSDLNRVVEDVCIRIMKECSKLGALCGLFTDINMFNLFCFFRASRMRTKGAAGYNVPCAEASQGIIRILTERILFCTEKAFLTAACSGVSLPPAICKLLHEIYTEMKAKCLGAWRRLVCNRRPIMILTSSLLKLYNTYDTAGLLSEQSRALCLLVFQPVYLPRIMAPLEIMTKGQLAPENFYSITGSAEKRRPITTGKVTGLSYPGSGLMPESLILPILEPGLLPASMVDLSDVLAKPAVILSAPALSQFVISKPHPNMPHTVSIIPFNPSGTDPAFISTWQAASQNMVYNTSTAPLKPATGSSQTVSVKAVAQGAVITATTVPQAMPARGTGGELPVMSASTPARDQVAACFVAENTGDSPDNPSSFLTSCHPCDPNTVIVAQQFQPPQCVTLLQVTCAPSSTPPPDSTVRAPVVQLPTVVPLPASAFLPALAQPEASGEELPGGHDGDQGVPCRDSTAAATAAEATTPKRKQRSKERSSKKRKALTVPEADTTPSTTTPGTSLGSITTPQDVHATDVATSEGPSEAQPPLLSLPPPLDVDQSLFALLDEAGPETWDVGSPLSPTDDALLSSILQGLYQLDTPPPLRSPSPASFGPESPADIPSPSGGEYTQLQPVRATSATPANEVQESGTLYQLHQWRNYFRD
Assay: pull-down
Settings: both partners purified

B1: FLAG-tagged ZIC2 (natural protein, UniProt O95409 1-532, looked up)
chain: MLLDAGPQFPAIGVGSFARHHHHSAAAAAAAAAEMQDRELSLAAAQNGFVDSAAAHMGAFKLNPGAHELSPGQSSAFTSQGPGAYPGSAAAAAAAAALGPHAAHVGSYSGPPFNSTRDFLFRSRGFGDSAPGGGQHGLFGPGAGGLHHAHSDAQGHLLFPGLPEQHGPHGSQNVLNGQMRLGLPGEVFGRSEQYRQVASPRTDPYSAAQLHNQYGPMNMNMGMNMAAAAAHHHHHHHHHPGAFFRYMRQQCIKQELICKWIDPEQLSNPKKSCNKTFSTMHELVTHVSVEHVGGPEQSNHVCFWEECPREGKPFKAKYKLVNHIRVHTGEKPFPCPFPGCGKVFARSENLKIHKRTHTGEKPFQCEFEGCDRRFANSSDRKKHMHVHTSDKPYLCKMCDKSYTHPSSLRKHMKVHESSPQGSESSPAASSGYESSTPPGLVSPSAEPQSSSNLSPAAAAAAAAAAAAAAAVSAVHRGGGSGSGGAGGGSGGGSGSGGGGGGAGGGGGGSSGGGSGTAGGHSGLSSNFNEWYV
notes: ZIC2 (zinc finger protein of the cerebellum 2); cDNA cloned into pFastBac; also called FLAG-ZIC2; source: recombinant baculovirus-infected Sf9 cells, purified
B1: binds.
